Results taken from patent publication US20120165265A1, “Calcium Signaling Modulators Involving STIM and ORAI Proteins” (priority 2009, published 2012).
Values belong to the substance of their own block, whether it stands above or below them.

What was measured:
[1] = molecular target: T1, Orai1 (Homo sapiens, UniProt Q96D31); assay: Puncta formation of STIM1 variants by confocal microscopy in HEK 293 cells; format: cell-based; set-up: expressed in transfected cells; host or cells: HEK 293; conditions: coexpressed with eGFP-Orai1, TG
Experimental: (§1) Confocal Microscopy. 6 h after transfection, HEK 293 cells were plated onto sterilized coverslips coated with poly-D-lysine and maintained in complete DMEM for an additional 12-18 h before imaging in Ringer's solution containing (in mM): 155 NaCl, 4.5 KCl, 2 CaCl2, 1 MgCl2, 10 D-glucose, and 5 Na-Hepes, pH 7.4. To deplete stores, cells were treated with 1 μM TG in Ca2+-free Ringer's (prepared by substituting 2 mM MgCl2 and 1 mM EGTA for CaCl2) for 10 min. eGFP and mCherry were excited simultaneously at 488 and 594 nm, respectively, on a Leica SP2 AOBS inverted confocal microscope equipped with a PL APO 100×/NA 1.4 oil immersion objective. Fluorescence emissions were collected at 615-840 nm (mCherry) and 510-570 nm (eGFP). All experiments were performed at 22-25° C.
Quantitation of STIM1 and Orai1 Recruitment into Puncta. Colocalization of eGFP-Orai1 and mCh-STIM1 variants was analyzed from background-corrected confocal image pairs acquired before and after store depletion. Puncta have two defining characteristics: (1) because they are sites of accumulation, STIM1 and Orai1 fluorescence intensities in puncta are greater than the respective mean intensities measured across the entire cell, and (2) because STIM1 and Orai1 co-localize in puncta, their fluorescence covariance is high. For each STIM1/Orai1 image pair, we computed the covariance of each pixel as (Si−s) (Oi−o), where Si and Oi are the STIM1 and Orai1 fluorescence of pixel i, and s and o are the mean STIM1 and Orai1 fluorescence of the entire cell. A threshold criterion for puncta was set using the pre-depletion image pair. The mean and s.d. of the covariance values were calculated from pixels for which both Si>s and Oi>o, and a covariance threshold was set equal to the mean+2×s.d. of this pre-depletion condition. Binary masks were applied to the pre- and post-depletion image pairs to isolate pixels for which Si>s and Oi>o and whose covariance exceeds the pre-depletion threshold. […] Integrated STIM1 or Orai1 puncta intensity was calculated from the masked images and expressed as a fraction of the total fluorescence intensity in the unmasked image. […]
The Role of CAD in Orai1 Binding and Activation by STIM1. […] To address this, we measured the ability of mCherry-tagged STIM1 variants containing CAD mutations to co-cluster with eGFP-Orai1 and activate Ca^2+ entry in response to TG (FIG. 7). STIM1-Orai1 colocalization was quantified as the fraction of total STIM1 and Orai1 fluorescence that was recruited to regions of high fluorescence covariance (FIG. 13), while Ca^2+ influx was measured with single cell Ca^2+ imaging. For each set of experiments we measured mCherry and GFP fluorescence to confirm that differences in the activity of the various STIM1 constructs were not due to differences in expression level (FIG. 14).

[2] = molecular target: T1, Orai1; assay: Store-operated Ca2+ entry by STIM1 variants, single cell Ca2+ imaging; format: cell-based; set-up: expressed in transfected cells; host or cells: HEK 293; conditions: coexpressed with eGFP-Orai1, TG
Experimental: For FIG. 7, cells were loaded as above with 2 μM fura-2/AM for 25 min. Ratiometric Ca2+ imaging was performed with 350 and 380 nm excitation in 2 mM Ca2+ Ringer's solution on an Axiovert 35 inverted microscope using a VideoProbe imaging system as described (Bautista et al., 2002). mCherry-positive cells were identified using a 540±12 nm excitation and a 580LP emission filter (Chroma).
The Role of CAD in Orai1 Binding and Activation by STIM1. A key question is whether CAD is responsible for the clustering and activation of CRAC channels by full-length STIM1 following store depletion. To address this, we measured the ability of mCherry-tagged STIM1 variants containing CAD mutations to co-cluster with eGFP-Orai1 and activate Ca^2+ entry in response to TG (FIG. 7). STIM1-Orai1 colocalization was quantified as the fraction of total STIM1 and Orai1 fluorescence that was recruited to regions of high fluorescence covariance (FIG. 13), while Ca^2+ influx was measured with single cell Ca^2+ imaging. For each set of experiments we measured mCherry and GFP fluorescence to confirm that differences in the activity of the various STIM1 constructs were not due to differences in expression level (FIG. 14).

[3] = molecular target: T1, Orai1; assay: Whole-cell patch clamp recording of ICRAC in transfected HEK 293 cells; format: cell-based; set-up: expressed in transfected cells; host or cells: HEK 293
Experimental: Electrophysiology. HEK 293 cells were transfected 8-24 h prior to electrophysiology experiments with STIM1- and Orai1-derived constructs in a 1:1 mass ratio using Lipofectamine 2000. […] ICRAC in cells cultured without LaCl3 was similar to that in cells cultured with LaCl3, but most cells without LaCl3 died soon after break-in.
Currents were recorded using standard whole-cell patch clamp techniques (Prakriya and Lewis, 2001). Pipettes of resistance 2-5 MΩ were filled with an internal solution containing (in mM) 150 Cs aspartate, 8 MgCl2, 10 EGTA, and 10 HEPES (pH 7.2 with CsOH). Currents were sampled at 5 kHz and filtered at 2 kHz, and all voltages were corrected for the junction potential of the pipette solution relative to Ringer's in the bath (−13 mV).
Patch-clamp Experiments. Pipette-membrane seals were formed in 2 mM Ca^2+ Ringer's solution. After break-in to the whole-cell configuration, voltage stimuli consisting of a 100-ms step to −100 mV followed by a 100-ms ramp from −100 to +100 mV were delivered every 5 s from the holding potential of +30 mV. After the currents reached a steady level (˜300 s for wild-type STIM1), the external solution was changed via a multibarrel local perfusion pipette to a high-Ca^2+ Ringer's containing (in mM) 130 NaCl, 4.5 KCl, 20 CaCl2, 1 MgCl2, 10 D-glucose, and 5 HEPES (pH 7.4 with NaOH). All data were leak-corrected using the current elicited in 20 mM Ca^2+ Ringer's+10 μM LaCl3 at the end of the each experiment. LaCl3 and 2-APB were added directly to parent solutions on the day of the experiment from 10 mM and 100 mM stocks in H2O and DMSO, respectively.
As a definitive test for CRAC channel activation, we conducted whole-cell patch clamp recordings from HEK 293 cells transiently transfected with myc-Orai1 and either YFP-STIM1 or YFP-CAD. In cells expressing full length YFP-STIM1, ICRAC appeared over several minutes following break-in, consistent with the typical slow activation seen in response to passive store depletion (FIG. 2D). […] In contrast, inward current was present from the moment of break-in in cells expressing YFP-CAD (FIG. 2E). This current was identified as ICRAC based on its dependence on extracellular Ca^2+, inward rectification, sequential enhancement and inhibition by 2-APB, and inhibition by La^3+ (FIG. 2E and FIG. 10 C, D). ICRAC was not observed at break-in in HEK 293 cells transfected with YFP or YFP-CAD in the absence of Orai1 (FIG. 2F), consistent with the low level of endogenous STIM1 and Orai1 in these cells. […] Inactivation was restored by addition of STIM1 residues carboxy-terminal to CAD.

[4] = molecular target: T1, Orai1; assay: Intracellular localization of YFP-CAD in HEK 293 cells; format: cell-based; set-up: expressed in transfected cells; host or cells: HEK 293; conditions: with myc-Orai1
Experimental: as §1
CAD Associates with Orai1 in vivo and in vitro. Because cytosolic CAD is a potent activator of Orai1 channels and is not associated with the ER, we hypothesized that CAD binds to Orai1. To test this idea, we first expressed YFP-CAD with or without myc-Orai1 in HEK 293 cells and examined its intracellular localization. […] GFP-myc-Orai1 was detected in the immunoprecipitates from cells co-expressing CAD and Orai1 but not from cells expressing CAD or Orai1 alone (FIG. 3B).

[5] = system: endogenous CRAC channels; assay: NFAT-luciferase assay in HEK 293T (NFAT-Luc) cells; format: cell-based; conditions: HEK 293T NFAT-luc cells transfected with STIM1 construct; PMA (1 μM) alone
Experimental: NFAT-luciferase Assays. HEK 293T cells were co-transfected with the indicated constructs and an NFAT reporter gene (firefly luciferase gene C-terminal to 4×-NFAT site from the IL-2 gene). Cotransfection with the Renilla luciferase (pRLTK) gene driven by the TK promoter was used to control for cell number and transfection efficiency. After 12-18 h, cells were treated with a control DMSO solution (mock), PMA (1 μM), or PMA plus TG (1 μM) for 8 h. Assays were performed using the Dual Luciferase Reporter assay system (Promega). For each condition, luciferase activity was measured with 4 samples taken from duplicate wells using a 96-well automated luminometer (Turner Biosystems). Results are represented as the ratio of firefly to Renilla luciferase activity.
Identifying a Minimal Cytosolic Region of STIM1 that Opens the CRAC Channel. To identify the CRAC-activating domain of STIM1, we first tested a series of soluble cytosolic STIM1 fragments for their ability to activate an NFAT-dependent luciferase reporter gene (NFAT-luc). A series of constructs were generated by progressive truncation of the full-length cytosolic region of STIM1 (FIG. 2A; STIM1234-685; CT-STIM1) and were transiently expressed in a HEK 293T cell line containing NFAT-luc. […]

[6] = molecular target: T2, CRAC channels (Homo sapiens, UniProt Q96D31); assay: [Ca2+]i imaging in HEK 293 cells expressing STIM1 fragment and Orai1; format: cell-based
T2 construct: expressed in transfected cells; host or cells: HEK 293
Experimental: Ca^2+ Imaging. For FIG. 2, cells were loaded at 37° C. in DMEM with 1 μM fura-2/AM for 30 min. Ratiometric Ca2+ imaging was performed at 340 and 380 nm in 2 mM Ca2+ Ringer's solution with a Nikon Eclipse 2000-U inverted microscope equipped with a fluorescent arc lamp, excitation filter wheel, and a Hamamatsu Orca CCD camera. Images were collected using Openlab (Improvision) and analyzed using Igor Pro.
To determine if CAD activates store operated Ca^2+ influx in cells, we measured [Ca^2+]i in HEK 293 cells expressing CAD and Orai1.

[7] = molecular target: T1, Orai1; assay: Co-immunoprecipitation with Orai1 in HEK 293T cells; format: binding; set-up: expressed in transfected cells; host or cells: HEK 293; conditions: 150 mM salt, 1% Triton X-100
Experimental: Immunoprecipitation and Immunoblot Analysis. Transfected HEK 293T cells (12-24 h) were washed with PBS and lysed in 50 mM Tris-HCl pH 7.5, 150 mM NaCl, 1% Triton X-100, and protease inhibitors. Lysates were spun at 12,000 rpm for 10 min, and the supernatant was incubated with anti-Flag M2 agarose beads (Sigma), or anti-myc or -HA antibody followed by IgG agarose beads (Pierce). Lysates and immunoprecipitates were subjected to SDS-PAGE, probed with HRP-conjugated secondary antibody and detected by enhanced chemiluminescence (Pierce).
CAD Associates with Orai1 in vivo and in vitro. Because cytosolic CAD is a potent activator of Orai1 channels and is not associated with the ER, we hypothesized that CAD binds to Orai1. To test this idea, we first expressed YFP-CAD with or without myc-Orai1 in HEK 293 cells and examined its intracellular localization. […] To provide additional evidence that CAD and Orai1 are part of the same protein complex we expressed Flag-tagged CAD and GFP-tagged Orai1 in HEK 293T cells and immunoprecipitated CAD with anti-Flag antibodies. GFP-myc-Orai1 was detected in the immunoprecipitates from cells co-expressing CAD and Orai1 but not from cells expressing CAD or Orai1 alone (FIG. 3B).
Thus, CAD and Orai1 form a protein complex in mammalian cells.

[8] = system: Orai1; assay: Puncta formation of STIM1 variants by confocal microscopy in HEK 293 cells; format: cell-based; conditions: expressed alone in HEK 293 cells
Experimental: as §1
Quantitation of STIM1 and Orai1 Recruitment into Puncta. Colocalization of eGFP-Orai1 and mCh-STIM1 variants was analyzed from background-corrected confocal image pairs acquired before and after store depletion. Puncta have two defining characteristics: (1) because they are sites of accumulation, STIM1 and Orai1 fluorescence intensities in puncta are greater than the respective mean intensities measured across the entire cell, and (2) because STIM1 and Orai1 co-localize in puncta, their fluorescence covariance is high. […]

[9] = molecular target: T3, EE-Orai1-His8 (Homo sapiens, UniProt Q96D31); assay: GST pull-down assay with purified proteins; format: binding; conditions: in vitro
T3 construct: made in house; host or cells: Hi5 insect cells (baculovirus, pVL1393)
Experimental: GST Pull-down Assays. For GST pull-down assays, either GST-CAD (0.16 μM) or GST (0.15 μM) was incubated with EE-Orai1-His8 (0.1 μM) for 1 h in buffer containing (in mM): 20 Tris-HCl (pH 8.0), 150 NaCl, 20 imidazole, and 1 DTT with protease inhibitors. After addition of glutathione sepharose the beads were centrifuged, washed with the above buffer, and the precipitated proteins were eluted with boiling SDS and analyzed by SDS-PAGE and Western blotting.
CAD Binds Directly to Orai1. To test for direct binding between the CAD and Orai1 we generated a GST-tagged CAD peptide in E. coli and an Orai1 protein containing C-terminal octa-histidine and N-terminal EEYMPME (“EE”) tags in insect Hi5 cells. We incubated purified GST-CAD or GST alone with purified EE-Orai1-His8 and used glutathione beads to precipitate the complexes.

T1 sequence (Q96D31 whole entry): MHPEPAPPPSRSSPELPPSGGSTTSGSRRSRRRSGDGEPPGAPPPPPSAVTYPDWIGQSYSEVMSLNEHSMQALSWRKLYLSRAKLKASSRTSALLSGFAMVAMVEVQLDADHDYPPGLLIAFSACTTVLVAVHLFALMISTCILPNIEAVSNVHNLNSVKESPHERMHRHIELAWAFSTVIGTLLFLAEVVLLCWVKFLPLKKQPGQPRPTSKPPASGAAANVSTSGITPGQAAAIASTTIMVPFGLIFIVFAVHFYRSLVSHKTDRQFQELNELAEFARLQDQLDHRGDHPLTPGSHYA
T2 sequence (Q96D31 whole entry, the tested form may be a part): as the sequence (Q96D31 whole entry) above
T3 sequence (Q96D31 whole entry): as above

puncta formation with Orai1 after store depletion [1]: formed pronounced puncta with Orai1
Ca2+ entry (SOCE) after store depletion [2]: only marginally activated SOCE
Substance: STIM1 C437G: STIM1 C437G mutant

constitutive ICRAC ([3]; HEK 293 cells cotransfected with construct and myc-Orai1, from break-in): constitutively active
Substance: YFP-CAD: YFP-tagged CAD expressed in HEK 293 cells
localization on coexpression of Orai1 [4]: dramatic recruitment of YFP-CAD to the plasma membrane

resting [Ca2+]i ([6]; HEK 293T cells coexpressing construct and Orai1): did so
[Ca2+]i / CRAC channel activation ([6]; HEK 293 cells coexpressing construct and Orai1, no store depletion): did not elevate resting [Ca^2+]i
co-immunoprecipitation with Orai1 [7]: unable to detect any interaction
Substance: CT-STIM1: full-length cytosolic region of STIM1 (aa 234-685) [reference compound]
activation of NFAT-dependent luciferase reporter gene (NFAT-luc) [5]: did not activate

Ca2+ entry (SOCE) after store depletion [2]: failed to activate SOCE
Substance: STIM11-440: STIM1 1-448 with the final 8 aa deleted
puncta formation with Orai1 after store depletion [1]: retained the ability to form puncta and cluster Orai1

puncta formation with Orai1 after store depletion [1]: formed puncta with Orai1
Ca2+ entry (SOCE) after store depletion [2]: activated Ca^2+ entry
Substance: STIM11-448: STIM1 truncated from the C-terminus to the end of the CAD

ICRAC after store depletion ([3]; HEK 293 cells coexpressing STIM1 variant and Orai1): activated ICRAC
puncta formation with Orai1 after store depletion [1]: colocalized in puncta
Substance: STIM1-DK: STIM1 lacking the polybasic C-terminal domain (aa 672-685)
puncta formation after store depletion [8]: failed to form puncta

co-precipitation of purified Orai1 with glutathione beads [9]: co-precipitated Orai1
Substance: GST-CAD: GST-tagged CAD peptide generated in E. coli
